# Data as given in the RNAGym collection of RNA variant scans (doi:10.7554/elife.80360).
# B1: CPEB3 Ribozyme (parent)
# chain: GGGGGCCACAGCAGAAGCGUUCACGUCGCGGCCCCUGUCAGAUUCUGGUGAAUCUGCGAAUUCUGCUGU
# Variants of: B1
# Test: self-cleavage, relative activity (ratio to wild type); higher = more cleavage; co-transcriptional
row,Variant,self-cleavage
1,GGGCUCCACAGCAGAAGCGUUCACGUCGCGGCCCCUGUCAGAUUCUGGUGAAUCUGCGAAUUCUGCUGU [G4C G5U],0.0341
2,GGGCGCCACAACAGAAGCGUUCACGUCGCGGCCCCUGUCAGAUUCUGGUGAAUCUGCGAAUUCUGCUGU [G4C G11A],0.375
3,GGGCGCCACACCAGAAGCGUUCACGUCGCGGCCCCUGUCAGAUUCUGGUGAAUCUGCGAAUUCUGCUGU [G4C G11C],0.273
4,GGGCGCCACAUCAGAAGCGUUCACGUCGCGGCCCCUGUCAGAUUCUGGUGAAUCUGCGAAUUCUGCUGU [G4C G11U],0.262
5,GGGCGCCACAGCAAAAGCGUUCACGUCGCGGCCCCUGUCAGAUUCUGGUGAAUCUGCGAAUUCUGCUGU [G4C G14A],0.223
6,GGGCGCCACAGCACAAGCGUUCACGUCGCGGCCCCUGUCAGAUUCUGGUGAAUCUGCGAAUUCUGCUGU [G4C G14C],0.101
7,GGGCGCCACAGCAUAAGCGUUCACGUCGCGGCCCCUGUCAGAUUCUGGUGAAUCUGCGAAUUCUGCUGU [G4C G14U],0.149
8,GGGCGCCACAGCAGAACCGUUCACGUCGCGGCCCCUGUCAGAUUCUGGUGAAUCUGCGAAUUCUGCUGU [G4C G17C],0.0898
9,GGGCGCCACAGCAGAAGCAUUCACGUCGCGGCCCCUGUCAGAUUCUGGUGAAUCUGCGAAUUCUGCUGU [G4C G19A],0.0646
10,GGGCGCCACAGCAGAAGCGUUCACAUCGCGGCCCCUGUCAGAUUCUGGUGAAUCUGCGAAUUCUGCUGU [G4C G25A],0.0767
11,GGGCGCCACAGCAGAAGCGUUCACCUCGCGGCCCCUGUCAGAUUCUGGUGAAUCUGCGAAUUCUGCUGU [G4C G25C],0.102
12,GGGCGCCACAGCAGAAGCGUUCACUUCGCGGCCCCUGUCAGAUUCUGGUGAAUCUGCGAAUUCUGCUGU [G4C G25U],0.0499
13,GGGCGCCACAGCAGAAGCGUUCACGUCACGGCCCCUGUCAGAUUCUGGUGAAUCUGCGAAUUCUGCUGU [G4C G28A],0.0907
14,GGGCGCCACAGCAGAAGCGUUCACGUCCCGGCCCCUGUCAGAUUCUGGUGAAUCUGCGAAUUCUGCUGU [G4C G28C],0.0443
15,GGGCGCCACAGCAGAAGCGUUCACGUCUCGGCCCCUGUCAGAUUCUGGUGAAUCUGCGAAUUCUGCUGU [G4C G28U],0.109
16,GGGCGCCACAGCAGAAGCGUUCACGUCGCAGCCCCUGUCAGAUUCUGGUGAAUCUGCGAAUUCUGCUGU [G4C G30A],0.0414
17,GGGCGCCACAGCAGAAGCGUUCACGUCGCUGCCCCUGUCAGAUUCUGGUGAAUCUGCGAAUUCUGCUGU [G4C G30U],0.0789
18,GGGCGCCACAGCAGAAGCGUUCACGUCGCGCCCCCUGUCAGAUUCUGGUGAAUCUGCGAAUUCUGCUGU [G4C G31C],0.105
19,GGGCGCCACAGCAGAAGCGUUCACGUCGCGGCCCCUAUCAGAUUCUGGUGAAUCUGCGAAUUCUGCUGU [G4C G37A],0.124
20,GGGCGCCACAGCAGAAGCGUUCACGUCGCGGCCCCUCUCAGAUUCUGGUGAAUCUGCGAAUUCUGCUGU [G4C G37C],0.068

row,Variant,self-cleavage
1,GGGCGCCACAGCAGAAGCGUUCACGUCGCGGCCCCUUUCAGAUUCUGGUGAAUCUGCGAAUUCUGCUGU [G4C G37U],0.0878
2,GGGCGCCACAGCAGAAGCGUUCACGUCGCGGCCCCUGUCAAAUUCUGGUGAAUCUGCGAAUUCUGCUGU [G4C G41A],0.0714
3,GGGCGCCACAGCAGAAGCGUUCACGUCGCGGCCCCUGUCACAUUCUGGUGAAUCUGCGAAUUCUGCUGU [G4C G41C],0.146
4,GGGCGCCACAGCAGAAGCGUUCACGUCGCGGCCCCUGUCAGAUUCUAGUGAAUCUGCGAAUUCUGCUGU [G4C G47A],0.674
5,GGGCGCCACAGCAGAAGCGUUCACGUCGCGGCCCCUGUCAGAUUCUUGUGAAUCUGCGAAUUCUGCUGU [G4C G47U],0.638
6,GGGCGCCACAGCAGAAGCGUUCACGUCGCGGCCCCUGUCAGAUUCUGCUGAAUCUGCGAAUUCUGCUGU [G4C G48C],0.675
7,GGGCGCCACAGCAGAAGCGUUCACGUCGCGGCCCCUGUCAGAUUCUGUUGAAUCUGCGAAUUCUGCUGU [G4C G48U],0.755
8,GGGCGCCACAGCAGAAGCGUUCACGUCGCGGCCCCUGUCAGAUUCUGGUAAAUCUGCGAAUUCUGCUGU [G4C G50A],0.654
9,GGGCGCCACAGCAGAAGCGUUCACGUCGCGGCCCCUGUCAGAUUCUGGUCAAUCUGCGAAUUCUGCUGU [G4C G50C],0.621
10,GGGCGCCACAGCAGAAGCGUUCACGUCGCGGCCCCUGUCAGAUUCUGGUGAAUCUACGAAUUCUGCUGU [G4C G56A],0.289
11,GGGCGCCACAGCAGAAGCGUUCACGUCGCGGCCCCUGUCAGAUUCUGGUGAAUCUCCGAAUUCUGCUGU [G4C G56C],0.246
12,GGGCGCCACAGCAGAAGCGUUCACGUCGCGGCCCCUGUCAGAUUCUGGUGAAUCUGCAAAUUCUGCUGU [G4C G58A],0.278
13,GGGCGCCACAGCAGAAGCGUUCACGUCGCGGCCCCUGUCAGAUUCUGGUGAAUCUGCCAAUUCUGCUGU [G4C G58C],0.226
14,GGGCGCCACAGCAGAAGCGUUCACGUCGCGGCCCCUGUCAGAUUCUGGUGAAUCUGCUAAUUCUGCUGU [G4C G58U],0.71
15,GGGCGCCACAGCAGAAGCGUUCACGUCGCGGCCCCUGUCAGAUUCUGGUGAAUCUGCGAAUUCUACUGU [G4C G65A],0.412
16,GGGCGCCACAGCAGAAGCGUUCACGUCGCGGCCCCUGUCAGAUUCUGGUGAAUCUGCGAAUUCUCCUGU [G4C G65C],0.242
17,GGGCGCCACAGCAGAAGCGUUCACGUCGCGGCCCCUGUCAGAUUCUGGUGAAUCUGCGAAUUCUUCUGU [G4C G65U],0.294
18,GGGCGCCACAGCAGAAGCGUUCACGUCGCGGCCCCUGUCAGAUUCUGGUGAAUCUGCGAAUUCUGCUUU [G4C G68U],0.98
19,GGGCGCCACAGCAGAAGCGAUCACGUCGCGGCCCCUGUCAGAUUCUGGUGAAUCUGCGAAUUCUGCUGU [G4C U20A],0.0691
